Target: the molecule itself
Assay: NMR signal intensities and chemical shifts (1H-15N correlation spectra) of the mutant against the wild type; per-residue chemical shift difference and intensity ratio between MEC-2 C-terminal domain WT and R385H, no partner added

B1: MEC-2 C-terminal domain R385H mutant (domain or fragment, C. elegans, UniProt Q27433 371-481, looked up)
chain: PPKVEEPPSLPKKIHSCCLYKYPDWVQGMVGSEGGGGHGHSHGGGGGGLGSSQGAFHPSQAGSGPSTTTTSGRPLLRSMREAQFHSAAPPISAPNQSQTSVSQLDPALLIR
notes: MEC-2 (stomatin), C. elegans, C-terminal domain, residues 371-481 as for the wild-type construct, with R385H (allele u26); also called MEC-2 (R385H); u26 allele
- binding result: binds

Reference: publication PMC10635833, “A MEC-2/stomatin condensate liquid-to-solid phase transition controls neuronal mechanotransduction during touch sensing” (Nature Cell Biology, 2023)
